Laboratory results from patent publication US20210070876A1 (LES LABORATOIRES SERVIER, published 2021).

What was measured:
[1] = biological target: T1, His-tagged cynomolgus CD73 ECD (cynomolgus monkey (Macaca fascicularis)); test: SPR, mAb captured, His-tagged CD73 ECD injected
T1 chain: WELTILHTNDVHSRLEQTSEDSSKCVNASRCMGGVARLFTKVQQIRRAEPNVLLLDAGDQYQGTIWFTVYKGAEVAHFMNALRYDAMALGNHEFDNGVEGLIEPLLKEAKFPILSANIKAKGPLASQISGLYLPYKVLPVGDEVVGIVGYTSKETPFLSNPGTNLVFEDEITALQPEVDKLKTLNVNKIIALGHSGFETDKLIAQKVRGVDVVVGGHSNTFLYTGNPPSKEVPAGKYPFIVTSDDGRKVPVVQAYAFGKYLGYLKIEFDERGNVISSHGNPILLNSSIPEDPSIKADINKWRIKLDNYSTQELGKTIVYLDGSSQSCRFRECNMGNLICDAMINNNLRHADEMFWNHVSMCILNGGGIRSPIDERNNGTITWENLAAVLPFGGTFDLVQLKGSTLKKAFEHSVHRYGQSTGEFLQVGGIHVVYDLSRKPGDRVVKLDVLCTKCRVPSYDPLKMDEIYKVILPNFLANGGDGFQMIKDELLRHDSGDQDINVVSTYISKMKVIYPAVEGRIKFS
Method: Kinetic binding analysis of anti-CD73 mAbs and Fab fragments was performed by Surface Plasmon Resonance (SPR), using a Continuous Flow Microspotter (CFM, Wasatch Microfluidics, Salt Lake City, US) combined with an IBIS MX96 SPR instrument (IBIS Technologies, The Netherlands). CD73 cDNAs coding for the extracellular domains of human and cynomolgus CD73 were synthesized and each cloned into a vector containing a CMV promoter and either a C-terminal 6× histidine sequence (SEQ ID NO: 45) for His-tagged CD73 ECD, or a human IgG1 Fc sequence (AA P101-K330), resulting in fusion of IgG1 Fc C-terminally to the cloned CD73 ECD. The His-tagged and Fc-fusion constructs were transiently expressed using an ExpiCHO™ expression system and purified either by standard Ni-NTA chromatography or standard MabSelect™ SuRe™ procedures, respectively. Anti-CD73 Fab fragments were generated by digesting full-length IgG1 antibodies with GingisKHAN enzyme, using a kit provided by Genovis (Sweden). Affinities of Fab fragments were measured by capturing Fc-tagged antigens on a G-a-hu-IgG Fc SensEye® for 15 minutes using the CFM. After spotting, the SensEye® was positioned in the IBIS MX96 biosensor and immobilized antigens were fixed by SensEye FixIt kit. Kinetic analysis was performed by injecting monomeric Fab fragments at increasing concentrations from 0.8 nM to 300 nM. After each cycle of Fab fragment injection, the surface was regenerated by 10 mM glycine pH 3, 10% glycerol. Fab association was performed for 15 minutes and antigen dissociation was performed for 15 minutes. Affinities of full-length monoclonal antibodies (mAbs) were measured by capturing mAbs on a G-a-hu-IgG Fc SensEye® (Ssens BV, The Netherlands) for 15 minutes using a Continuous Flow Microspotter (CFM, Wasatch Microfluidics, Salt Lake City, US). After spotting, the SensEye was docked in the IBIS MX96 and spotted mAbs were fixed by SensEye FixIt kit (Ssens BV, The Netherlands). Kinetic analysis was performed by applying a kinetic titration series injecting increasing concentrations of His-tagged antigens from 0.16 nM to 10 nM as 2-fold dilutions. The surface was regenerated before the next cycle of cynomolgus antigen injections by 100 mM H₃PO₄, pH 3. MAb association was performed for 15 minutes and antigen dissociation was performed for 45 minutes.

[2] = biological target: T2, cynomolgus CD73 expressed on cells (cynomolgus monkey (Macaca fascicularis), UniProt A0A2K5V5U7 27-549); test: flow cytometry on CHO-S cells transiently expressing cynomolgus CD73, AF647 anti-human IgG (H+L) secondary, GeoMean
T2 construct: whole, on cells; also called cynomolgus CD73 on CHO-S cells; CD73 on Cynom-K1 cells
T2 sequence: T1 chain
Method: The anti-CD73 antibodies were incubated with the hamster CHO-S cell line transiently expressing human or cynomolgus CD73 for 30 minutes at 4° C. The cells were washed twice and subsequently incubated for an additional 20 minutes with AF647-conjugated secondary anti-human IgG (H+L) antibody. After the washing step, antibody binding was detected using the high-throughput flow cytometer iQue Screener PLUS (Sartorius) measuring the GeoMean of AF647 signal in each well. Every concentration was assayed in triplicate and a 12-point titration curve was generated for each antibody.

B1: antibody 21127 (antibody, human IgG1, kappa, L234A L235A, V domains shown)
VH: EVQLVESGGGLVQPGRSLRLSCAASGFTFDDFAMHWVRQAPGKGLEWVSGISWNSGNIGYADSVKGRFTISRDNAKNSLYLQMNSLRAEDTALYYCAKDKSGSPYYYYGMDVWGQGTMVTVSS
VL: DIQMTQSPSSVSASVGDRVTITCRATQGISRRLAWYQQKPGKAPKLLIYAASSLQSGVPSRFSGSGSGTDFTLTISSLQPEDFATYYCQQANSFPLTFGGGTKVEIKR
notes: Fully human IgG1-LALA (L234A/L235A), kappa
Kd [1]: 240 pM
EC50 (read off the curve) [2]: ~4 ng/mL
